Columns and labels:
Abeta1-42 [1] = molecular target: T1, Abeta1-42 (human); test: indirect ELISA, plate coated with Abeta1-42, antibody titrated, anti-mouse IgG-HRP, O.D. 450 nm
T1 construct: coated on plates in the direct ELISA, in solution as analyte in the sandwich ELISA; also called human Abeta 1-42; amyloid-beta 1-42

[2] = molecular target: T2, full-length sAPPalpha fragment (UniProt P05067-4 18-612, limits assumed); test: indirect ELISA, sAPPalpha coated
T2 construct: domain: sAPPalpha; Bought protein; also called soluble APP alpha; soluble amyloid precursor protein alpha

[3] = molecular target: T3, Human Abeta1-42 biotinylated at the peptide C-terminus (human, biotin at the peptide C-terminus); test: target capture ELISA
T3 construct: also called biotinylated Abeta1-42

Abeta1-42 [4] = molecular target: T1, Abeta1-42; test: indirect ELISA, Abeta1-42 coated, antibody titrated
bovine serum albumin = molecular target: T4, bovine serum albumin (bovine, UniProt P02769 25-607); test: indirect ELISA, plate coated with BSA, antibody titrated, anti-mouse IgG-HRP, O.D. 450 nm
T4 construct: Negative control antigen; also called BSA

T2 sequence (P05067 other isoform, or with tags, fused parts or gaps limits assumed): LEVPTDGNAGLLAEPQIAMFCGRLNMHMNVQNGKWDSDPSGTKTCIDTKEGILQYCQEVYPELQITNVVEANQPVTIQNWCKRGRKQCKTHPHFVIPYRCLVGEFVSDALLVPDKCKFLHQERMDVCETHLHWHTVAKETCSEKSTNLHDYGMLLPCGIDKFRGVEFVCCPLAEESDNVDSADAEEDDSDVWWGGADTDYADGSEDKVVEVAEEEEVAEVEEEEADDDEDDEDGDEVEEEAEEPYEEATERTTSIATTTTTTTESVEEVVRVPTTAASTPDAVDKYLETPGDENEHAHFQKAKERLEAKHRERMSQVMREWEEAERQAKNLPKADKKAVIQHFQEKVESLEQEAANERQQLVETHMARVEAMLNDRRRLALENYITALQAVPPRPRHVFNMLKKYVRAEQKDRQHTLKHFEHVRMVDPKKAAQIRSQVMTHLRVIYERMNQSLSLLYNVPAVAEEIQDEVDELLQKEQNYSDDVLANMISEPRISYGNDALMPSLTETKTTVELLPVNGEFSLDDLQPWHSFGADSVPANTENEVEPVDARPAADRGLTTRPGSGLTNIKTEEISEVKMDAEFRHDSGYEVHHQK

B1: ACI-31-30C11-Ab1 (murine IgG2a with a kappa light chain) (antibody, V domains shown)
VH: QVQLQQSGPELVKPGASVKISCKASGYAFSSSWLNWVKQRPGEGLEWIGRIYPGDGDINYNGKFKGKATLTADKSSSTAYMQLSSLTSDDSAVYFCTKRGRYALDYWGQGTSVTVSS
VL: DIVLTQSPASLAVSLGQRATISCRASKSVDNYGKSFMHWFQQKPGQPPKLLIYRASNLESGIPARFSGSGSRTDFTLTINPVEADDVATYYCQQSNEDPYTFGGGTKLEMKR
notes: also called AC-31-30C11-Ab1
How did the “EC50 (read off the curve)” value (Abeta1-42 [1]) turn out when B1 was run?
The value was ~0.2 nM.

Does B1 bind [2]?
Result: no binding

Does B1 bind [3]?
Result: binds

What about the Kd (Abeta1-42 [4]) of the same binder?
The Kd was 0.196 nM.

Does B1 bind (bovine serum albumin)?
Result: no binding (tested: 100 nM)

From US20230034474A1 (AC IMMUNE, published 2023)
